US12534541B2, “Anti-PTK7 antibody and uses thereof” (MABCARE THERAPEUTICS, priority 2023, dated 2026)

Assays:
murine PTK7 protein = biological target: T1, murine PTK7 protein (Mus musculus, UniProt Q8BKG3); assay: Relative binding activity to murine PTK7 by ELISA; details: immobilized protein
T1 construct: purchased Acrobiosystems PT7-M52H3
T1 sequence (Q8BKG3 23-1062): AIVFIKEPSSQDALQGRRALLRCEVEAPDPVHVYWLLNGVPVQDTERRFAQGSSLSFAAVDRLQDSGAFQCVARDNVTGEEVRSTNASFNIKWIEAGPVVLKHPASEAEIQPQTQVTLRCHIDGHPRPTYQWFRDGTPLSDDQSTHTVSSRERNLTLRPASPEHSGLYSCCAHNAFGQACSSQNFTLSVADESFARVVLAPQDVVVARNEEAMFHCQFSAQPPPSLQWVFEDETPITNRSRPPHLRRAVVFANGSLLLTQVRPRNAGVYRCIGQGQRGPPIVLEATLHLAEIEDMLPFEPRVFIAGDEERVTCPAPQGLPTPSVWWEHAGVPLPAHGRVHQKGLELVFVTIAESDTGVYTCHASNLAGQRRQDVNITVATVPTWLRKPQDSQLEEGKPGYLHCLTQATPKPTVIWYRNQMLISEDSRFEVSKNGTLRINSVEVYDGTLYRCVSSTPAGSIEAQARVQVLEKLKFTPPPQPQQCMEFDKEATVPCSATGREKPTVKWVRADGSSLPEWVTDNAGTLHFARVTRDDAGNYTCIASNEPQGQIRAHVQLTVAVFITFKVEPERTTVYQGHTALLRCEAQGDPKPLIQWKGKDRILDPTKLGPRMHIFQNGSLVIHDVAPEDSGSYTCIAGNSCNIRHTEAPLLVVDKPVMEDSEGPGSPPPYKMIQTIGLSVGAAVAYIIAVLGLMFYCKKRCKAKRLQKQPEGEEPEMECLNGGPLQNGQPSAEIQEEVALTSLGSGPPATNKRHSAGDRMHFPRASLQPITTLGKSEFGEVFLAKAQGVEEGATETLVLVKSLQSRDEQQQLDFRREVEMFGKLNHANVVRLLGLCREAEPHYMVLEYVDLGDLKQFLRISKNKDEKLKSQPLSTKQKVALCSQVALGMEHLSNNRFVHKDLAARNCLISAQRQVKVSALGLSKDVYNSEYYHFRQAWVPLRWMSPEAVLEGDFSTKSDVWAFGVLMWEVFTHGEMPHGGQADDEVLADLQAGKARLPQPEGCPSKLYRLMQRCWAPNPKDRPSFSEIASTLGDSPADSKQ
Experimental: (§1) Human PTK7 protein (Catalog No. PT7-H52H3, Acrobiosystems), monkey PTK7 protein (Catalog No. PT7-C52H3, Acrobiosystems), and murine PTK7 protein (Catalog No. PT7-M52H3, Acrobiosystems) were incubated at 4° C. overnight and immobilized onto a 96-well plate. The plate was then blocked by incubating at 37° C. with 1% BSA in PBS for 1 h. After blocking, the plate was washed 3 times with PBST (PBS containing 0.05% Tween 20). Serial dilutions of anti-PTK7 antibody as prepared in Example 2 of the present disclosure was prepared in a binding buffer (PBS containing 0.05% Tween20 and 0.5% BSA) and incubated with the immobilized proteins at 37° C. for 1 h. After binding, the plate was washed 3 times with PBST, incubated with peroxidase-labeled donkey anti-human IgG (Jackson ImmunoResearch) diluted at 1/15,000 in the binding buffer at 37° C. for 1 h, washed again, developed with TMB and terminated with 1M H2SO4. The absorbance at 450 nm-620 nm was measured.

Human PTK7 protein = biological target: T2, Human PTK7 protein (Homo sapiens, UniProt Q13308); assay: Relative binding activity to human PTK7 by ELISA
T2 construct: purchased Acrobiosystems PT7-H52H3
T2 sequence (Q13308 31-1070): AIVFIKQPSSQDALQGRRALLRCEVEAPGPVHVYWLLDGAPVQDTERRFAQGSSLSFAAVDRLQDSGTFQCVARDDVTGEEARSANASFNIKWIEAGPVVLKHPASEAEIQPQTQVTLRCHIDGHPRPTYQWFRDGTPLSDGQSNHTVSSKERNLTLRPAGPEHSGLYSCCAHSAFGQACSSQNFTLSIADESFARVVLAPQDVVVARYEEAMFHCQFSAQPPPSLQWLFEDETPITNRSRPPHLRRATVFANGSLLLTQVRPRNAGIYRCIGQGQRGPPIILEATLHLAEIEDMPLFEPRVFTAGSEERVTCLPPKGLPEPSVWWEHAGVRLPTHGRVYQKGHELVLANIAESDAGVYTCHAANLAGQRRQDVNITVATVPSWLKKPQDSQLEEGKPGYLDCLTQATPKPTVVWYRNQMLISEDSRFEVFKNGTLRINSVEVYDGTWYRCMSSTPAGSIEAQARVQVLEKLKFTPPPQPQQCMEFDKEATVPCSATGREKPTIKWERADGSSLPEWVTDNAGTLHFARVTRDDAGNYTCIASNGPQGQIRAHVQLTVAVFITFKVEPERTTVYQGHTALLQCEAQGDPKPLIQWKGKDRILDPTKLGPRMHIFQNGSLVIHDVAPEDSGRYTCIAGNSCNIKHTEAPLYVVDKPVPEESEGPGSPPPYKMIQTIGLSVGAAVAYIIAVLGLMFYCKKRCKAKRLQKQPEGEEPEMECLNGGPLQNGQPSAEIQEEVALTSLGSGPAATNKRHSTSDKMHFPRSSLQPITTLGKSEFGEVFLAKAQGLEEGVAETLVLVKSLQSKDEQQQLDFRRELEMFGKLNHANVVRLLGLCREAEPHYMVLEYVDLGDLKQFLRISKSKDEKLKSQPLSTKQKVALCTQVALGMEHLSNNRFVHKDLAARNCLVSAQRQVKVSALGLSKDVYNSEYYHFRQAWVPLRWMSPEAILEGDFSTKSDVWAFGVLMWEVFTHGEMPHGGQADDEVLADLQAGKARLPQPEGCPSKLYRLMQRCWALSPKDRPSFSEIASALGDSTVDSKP
Experimental: as §1

monkey PTK7 protein = assay: Relative binding activity to monkey PTK7 by ELISA
Experimental: as §1

- binding to human PTK7 protein (Human PTK7 protein; immobilized protein): specifically bind
- binding to monkey PTK7 protein (monkey PTK7 protein; immobilized protein): specifically bind
B1: ch13: human-murine chimeric PTK7 antibody, VH SEQ ID NO: 20, VL SEQ ID NO: 19 (antibody, V domains shown)
VH: QVQLQQSGAELVRPGVSVKISCKGSGYTFTDYGMHWLKQSHAKSLEWIGVISPYYGDVTYNQKFKGKATMTVDKSSSTAYMELARLTSEDSAIYYCARGMGYWGQGTSVTVSS
VL: DVQITQSPSYLAASPGETITINCRASQSISKYLAWYQEKPGKTNKLLIYSGSTLQSGIPSRFSGSGSGTDFTLTISSLEPEDFAMYYCQQHNEYPWTFGGGTKLEIK
- cross-reaction with mouse PTK7 (murine PTK7 protein): neither ch13 nor h6M24 antibodies cross-react
- affinity compared with h6M24 (positive control antibody) (Human PTK7 protein; human PTK7): significantly superior over that of h6M24
- affinity compared with h6M24 (positive control antibody) (monkey PTK7 protein; monkey PTK7): significantly superior over that of h6M24
